Measured values reported in US20180362616A1, “VARIANTS OF AMYLOID beta-PROTEIN PRECURSOR INHIBITOR DOMAIN” (THE NATIONAL INSTITUTE FOR BIOTECHNOLOGY IN THE NEGEV LTD., priority 2015, published 2018).
pKd, pKi: −log10 of the molar value. “Also recorded” adds a separate entry of the source. Like-named read-outs stand apart in the source and are kept apart here.

Experiments:
mesotrypsin [1] = target: T1, mesotrypsin (Homo sapiens, UniProt P35030); experiment: Hydrolysis of APPI variants by mesotrypsin, HPLC time course; format: biochemical; set-up: made in house
T1 sequence (P35030 81-304 limits assumed): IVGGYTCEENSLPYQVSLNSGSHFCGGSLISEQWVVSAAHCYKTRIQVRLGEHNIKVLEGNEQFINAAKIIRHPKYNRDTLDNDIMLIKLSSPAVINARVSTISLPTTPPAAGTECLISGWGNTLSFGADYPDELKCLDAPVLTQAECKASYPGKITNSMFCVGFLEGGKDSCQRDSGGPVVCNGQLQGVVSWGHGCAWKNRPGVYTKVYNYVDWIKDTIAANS

mesotrypsin [2] = target: T1, mesotrypsin; experiment: Mesotrypsin inhibition, cleavage of Z-GPR-pNA; format: biochemical; set-up: made in house
mesotrypsin [3] = target: T1, mesotrypsin; conditions: literature (Knecht et al. 2007; Radisky et al. 2003); cited from earlier work
AGS cells = experiment: XTT proliferation assay; format: cell-based; conditions: 100 nM, 1 μM, 10 μM, 48 hours
Experimental: (§1) The effect of an APPI variant (SEQ ID NO: 13) on proliferation of gastric cancer cells was evaluated by XTT assay. AGS, HCT-116 and SW-480 cells were plated into 96-well plates in 9600 cells/well in duplicate, and allowed to adhere for 4 hours. Each well was supplemented with 100 nM, 1 μM, or 10 μM […] (SEQ ID NO: 13) or a vehicle (50 mM Tris-HCl, 100 mM NaCl, Ph 7.3), and cells were incubated for 48 hours. Proliferation was measured by XTT following the manufacturer instructions (Biological Industries, Ill.).

HCT-116 cells = experiment: XTT proliferation assay; format: cell-based; conditions: 100 nM, 1 μM, 10 μM, 48 hours
Experimental: as §1

SW-480 cells = experiment: XTT proliferation assay; format: cell-based; conditions: 100 nM, 1 μM, 10 μM, 48 hours
Experimental: as §1

hK6 [4] = target: T2, hK6 (Homo sapiens, UniProt Q92876); experiment: Surface plasmon resonance, APPI on nickel chip, hK6 analyte; format: binding; conditions: SPR
Experimental: APPIs were immobilized to a SPR nickel chip via the proteins His tag, and hK6 protein served as the analyte. The experiment was conducted at 25° C. APPI concentrations were 0.6125 nM, 1.25 nM, 2.5 nM, 5 nM, and 10 nM.
To this end, APPIs were mounted on a surface Plasmon resonance (SPR) nickel chip by their His tag, and hK6 molecules served as the analyte.

hK6 [5] = target: T2, hK6; experiment: YSD binding of 50 nM hK6 in presence of active-site small molecule
Experimental: Next, different concentrations of the polypeptides having SEQ ID Nos: 8, 13, and 14 were tested for their ability to bind 50 nM hK6 in the presence of a small molecule which target and home the serine residue in the active pocket of hK6.

AGS gastric cancer cells = experiment: Matrigel ThinCerts invasion assay; format: cell-based
Experimental: The effects of […] (SEQ ID NO: 13) on the invasive behavior of AGS gastric cancer cells was examined. For invasion assays AGS cells were plated in the top chamber of a Matrigel coated […] (Greiner Bio-One, Germany), with an 8 μm pored membrane in 160 μl serum-free Ham's F-12 medium, in triplicate. 1 uM-10 uM of APPI (SEQ ID NO: 13) or a vehicle (50 mM Tris-HCl, 100 mM NaCl, Ph 7.3) in 40 μl were added to each insert. Next, the inserts were placed into the bottom chamber wells of a 24-well plate containing Ham's F-12 with 10% FBS as a chemo-attractant. After 48 hours of incubation, cells remaining on the inserts' top layers were removed by cotton swab scrubbing; Cells on the lower surface of the membrane were fixed in 100%/methanol and stained with Romanowski stain solutions. The cell numbers in 10 random fields (×20) were counted for each chamber and the average value was calculated.

**Q.** Which Kcat (mesotrypsin [1]; Table 4) does the source give for “APPIT11C/M17G/I18F/F34C: APPI variant, EVCSEQAECGPCRAGFSRWYFDVTEGKCAPFCYGGCGGNRNNFDTEEYCMAVCGSAI” here?
**A.** 0.00521 s⁻¹

**Q.** What about the turnover time (mesotrypsin [1]; Table 4) of the same substance?
**A.** 192.21 s

**Q.** And the “Turnover time (fold)” value (mesotrypsin [1]; proteolytic stability relative to APPI-WT)?
**A.** around 2 fold

**Q.** And the pKi (mesotrypsin [2]; Table 4, read-out: Ki)?
**A.** 6.83

**Q.** Which “proteolytic stability toward mesotrypsin” value (mesotrypsin [3]) does the source give for “bovine pancreatic trypsin inhibitor [BPTI]” here?
**A.** the more stable of the two

**Q.** With “SEQ ID NO: 13: APPI variant, EVCSEQAETGPCRALFFRWYFDVTEGKCAPFVYGGCGGNRNNFDTEEYCMAVCGSAI” as the substance, how does the “proliferation (XTT)” value (AGS cells) read?
**A.** did not inhibit proliferation

**Q.** What about the “proliferation (XTT)” value (HCT-116 cells) of the same substance?
**A.** did not inhibit proliferation

**Q.** And the “proliferation (XTT)” value (SW-480 cells)?
**A.** did not inhibit proliferation

**Q.** And the pKd (hK6 [4]; 25° C.)?
**A.** 9.45

**Q.** What about the “improvement in binding to hK6” value (hK6 [4]; compared to APPI WT) of the same substance?
**A.** 22.5 folds

**Q.** What about the pKi (mesotrypsin [2]; Example 10, read-out: Ki (mesotrypsin activity)) of the same substance?
**A.** 8.27

**Q.** What about the “binding to hK6 compared with SEQ ID NO: 8” value (hK6 [5]; 50 nM hK6, yeast display) of the same substance?
**A.** higher binding

**Q.** And the “binding to hK6 in presence of small molecule” value (hK6 [5]; high concentrations of small molecule targeting active-site Ser of hK6)?
**A.** diminished

**Q.** What about the “invasive cells per field” value (AGS gastric cancer cells; 10 μM APPI (b288 prints 10M), 48 hours) of the same substance?
**A.** 1.46±0.48 cells/field

**Q.** And the invasion capacity reduced (AGS gastric cancer cells; 10 μM APPI (b288 prints 10M), 48 hours, vs vehicle)?
**A.** 77%

**Q.** And the transmembrane invasion (AGS gastric cancer cells; compared with vehicle)?
**A.** significantly lower transmembrane invasion capacity; also recorded: inhibits cell invasion
